Measured values as given in IntAct's records for PubMed 29892012.

B1: Protein Largen (Homo sapiens), Q569H4 (parent)
chain: MSAKSKGNPSSSCPAEGPPAASKTKVKEQIKIIVEDLELVLGDLKDVAKELKEVVDQIDTLTSDLQLEDEMTDSSKTDTLNSSSSGTTASSLEKIKVQANAPLIKPPAHPSAILTVLRKPNPPPPPPRLTPVKCEDPKRVVPTANPVKTNGTLLRNGGLPGGPNKIPNGDICCIPNSNLDKAPVQLLMHRPEKDRCPQAGPRERVRFNEKVQYHGYCPDCDTRYNIKNREVHLHSEPVHPPGKIPHQGPPLPPTPHLPPFPLENGGMGISHSNSFPPIRPATVPPPTAPKPQKTILRKSTTTTV
B2: E3 ubiquitin-protein ligase LNX (Homo sapiens), Q8TBB1 (parent)
chain: MNQPESANDPEPLCAVCGQAHSLEENHFYSYPEEVDDDLICHICLQALLDPLDTPCGHTYCTLCLTNFLVEKDFCPMDRKPLVLQHCKKSSILVNKLLNKLLVTCPFREHCTQVLQRCDLEHHFQTSCKGASHYGLTKDRKRRSQDGCPDGCASLTATAPSPEVSAAATISLMTDEPGLDNPAYVSSAEDGQPAISPVDSGRSNRTRARPFERSTIRSRSFKKINRALSVLRRTKSGSAVANHADQGRENSENTTAPEVFPRLYHLIPDGEITSIKINRVDPSESLSIRLVGGSETPLVHIIIQHIYRDGVIARDGRLLPGDIILKVNGMDISNVPHNYAVRLLRQPCQVLWLTVMREQKFRSRNNGQAPDAYRPRDDSFHVILNKSSPEEQLGIKLVRKVDEPGVFIFNVLDGGVAYRHGQLEENDRVLAINGHDLRYGSPESAAHLIQASERRVHLVVSRQVRQRSPDIFQEAGWNSNGSWSPGPGERSNTPKPLHPTITCHEKVVNIQKDPGESLGMTVAGGASHREWDLPIYVISVEPGGVISRDGRIKTGDILLNVDGVELTEVSRSEAVALLKRTSSSIVLKALEVKEYEPQEDCSSPAALDSNHNMAPPSDWSPSWVMWLELPRCLYNCKDIVLRRNTAGSLGFCIVGGYEEYNGNKPFFIKSIVEGTPAYNDGRIRCGDILLAVNGRSTSGMIHACLARLLKELKGRITLTIVSWPGTFL
partner: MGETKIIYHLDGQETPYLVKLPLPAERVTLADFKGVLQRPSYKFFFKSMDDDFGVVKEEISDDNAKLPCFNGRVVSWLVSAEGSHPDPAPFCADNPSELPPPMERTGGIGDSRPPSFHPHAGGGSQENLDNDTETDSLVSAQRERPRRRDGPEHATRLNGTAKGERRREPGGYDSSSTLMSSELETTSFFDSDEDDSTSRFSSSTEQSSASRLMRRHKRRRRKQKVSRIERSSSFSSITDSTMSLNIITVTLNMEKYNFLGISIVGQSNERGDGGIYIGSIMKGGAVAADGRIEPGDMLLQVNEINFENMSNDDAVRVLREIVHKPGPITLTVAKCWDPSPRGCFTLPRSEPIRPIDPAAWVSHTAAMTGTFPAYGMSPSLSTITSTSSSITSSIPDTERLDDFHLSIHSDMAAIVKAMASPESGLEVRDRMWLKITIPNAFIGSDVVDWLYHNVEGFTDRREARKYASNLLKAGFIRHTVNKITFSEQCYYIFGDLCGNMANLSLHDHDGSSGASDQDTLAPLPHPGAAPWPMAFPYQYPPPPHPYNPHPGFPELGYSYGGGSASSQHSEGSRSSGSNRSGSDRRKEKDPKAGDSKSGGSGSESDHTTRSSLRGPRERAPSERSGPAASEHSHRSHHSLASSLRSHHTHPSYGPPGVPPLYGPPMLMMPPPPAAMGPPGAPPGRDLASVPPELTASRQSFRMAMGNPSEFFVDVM
B3: Ras GTPase-activating protein-binding protein 2 (Homo sapiens), Q9UN86 (parent)
chain: MVMEKPSPLLVGREFVRQYYTLLNKAPEYLHRFYGRNSSYVHGGVDASGKPQEAVYGQNDIHHKVLSLNFSECHTKIRHVDAHATLSDGVVVQVMGLLSNSGQPERKFMQTFVLAPEGSVPNKFYVHNDMFRYEDEVFGDSEPELDEESEDEVEEEQEERQPSPEPVQENANSGYYEAHPVTNGIEEPLEESSHEPEPEPESETKTEELKPQVEEKNLEELEEKSTTPPPAEPVSLPQEPPKAFSWASVTSKNLPPSGTVSSSGIPPHVKAPVSQPRVEAKPEVQSQPPRVREQRPRERPGFPPRGPRPGRGDMEQNDSDNRRIIRYPDSHQLFVGNLPHDIDENELKEFFMSFGNVVELRINTKGVGGKLPNFGFVVFDDSEPVQRILIAKPIMFRGEVRLNVEEKKTRAARERETRGGGDDRRDIRRNDRGPGGPRGIVGGGMMRDRDGRGPPPRGGMAQKLGSGRGTGQMEGRFTGQRR

Variants of: B1
Conditions: with abi2_human ABI2, Q9NYB9
abi2_human ABI2, Q9NYB9, sequence (Q9NYB9 whole entry): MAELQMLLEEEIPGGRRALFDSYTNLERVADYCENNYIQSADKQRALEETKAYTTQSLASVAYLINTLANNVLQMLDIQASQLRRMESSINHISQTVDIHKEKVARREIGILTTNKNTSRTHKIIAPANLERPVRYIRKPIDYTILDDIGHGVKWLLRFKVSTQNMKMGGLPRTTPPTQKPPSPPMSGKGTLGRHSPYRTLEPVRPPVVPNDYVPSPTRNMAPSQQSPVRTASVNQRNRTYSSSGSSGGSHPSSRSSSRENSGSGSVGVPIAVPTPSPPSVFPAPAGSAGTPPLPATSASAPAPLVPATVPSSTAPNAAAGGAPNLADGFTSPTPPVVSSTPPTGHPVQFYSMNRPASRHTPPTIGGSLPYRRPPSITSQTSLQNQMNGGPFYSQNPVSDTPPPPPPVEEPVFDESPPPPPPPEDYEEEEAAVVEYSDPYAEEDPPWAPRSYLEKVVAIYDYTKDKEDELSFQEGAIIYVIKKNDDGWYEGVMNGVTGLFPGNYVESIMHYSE

Variant | effect of a mutation on the interaction
MSAKSKGNPSSSCPAEGPPAASKTKVKEQIKIIVEDLELVLGDLKDVAKELKEVVDQIDTLTSDLQLEDEMTDSSKTDTLNSSSSGTTASSLEKIKVPANAPLIKPPAHPSAILTVLRKPNPPPPPPRLTPVKCEDPKRVVPTANPVKTNGTLLRNGGLPGGPNKIPNGDICCIPNSNLDKAPVQLLMHRPEKDRCPQAGPRERVRFNEKVQYHGYCPDCDTRYNIKNREVHLHSEPVHPPGKIPHQGPPLPPTPHLPPFPLENGGMGISHSNSFPPIRPATVPPPTAPKPQKTILRKSTTTTV [Q98P] | with no effect

Variants of: B2
Conditions: with dvl3_human DVL3, Q92997

Variant | effect of a mutation on the interaction
E295K | disrupting interaction strength

Variants of: B3
Conditions: with ubp10_human USP10, Q14694
ubp10_human USP10, Q14694, sequence (Q14694 whole entry): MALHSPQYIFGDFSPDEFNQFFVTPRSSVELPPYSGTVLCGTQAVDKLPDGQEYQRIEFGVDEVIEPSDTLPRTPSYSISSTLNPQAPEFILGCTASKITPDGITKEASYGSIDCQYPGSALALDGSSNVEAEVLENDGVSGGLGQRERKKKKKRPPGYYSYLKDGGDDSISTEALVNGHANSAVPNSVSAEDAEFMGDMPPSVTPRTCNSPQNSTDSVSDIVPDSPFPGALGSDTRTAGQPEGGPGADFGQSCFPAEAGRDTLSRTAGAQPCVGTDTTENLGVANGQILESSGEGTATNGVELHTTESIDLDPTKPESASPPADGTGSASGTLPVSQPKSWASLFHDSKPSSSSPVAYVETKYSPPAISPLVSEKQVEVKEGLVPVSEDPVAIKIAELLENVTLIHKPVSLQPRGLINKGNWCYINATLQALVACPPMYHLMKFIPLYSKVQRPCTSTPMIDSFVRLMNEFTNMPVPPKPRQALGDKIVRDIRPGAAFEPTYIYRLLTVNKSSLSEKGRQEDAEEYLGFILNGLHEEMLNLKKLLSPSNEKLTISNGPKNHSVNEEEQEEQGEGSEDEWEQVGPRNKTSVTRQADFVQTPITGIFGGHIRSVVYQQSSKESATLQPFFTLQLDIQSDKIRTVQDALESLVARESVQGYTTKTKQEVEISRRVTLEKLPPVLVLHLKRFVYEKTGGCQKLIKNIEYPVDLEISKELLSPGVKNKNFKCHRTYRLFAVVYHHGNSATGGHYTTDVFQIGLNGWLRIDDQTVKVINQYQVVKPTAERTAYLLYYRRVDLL

Variant | effect of a mutation on the interaction
MVMEKPSPLLVGREFVRQYYTLLNKAPEYLHRFYGRNSSYVHGGVDASGKPQEAVYGQNDIHHKVLSLNFSECHTKIRHVDAHATLSDGVVVQVMGLLSNSGQPERKFMQTFVLAPEGSVPNKFYVHNDMFRYEDEVFGDSEPELDEESEDEVEEEQEERQPSPEPVQENANSGYYEAHPVTNGIEEPLEESSHEPEPEPESETKTEEPKPQVEEKNLEELEEKSTTPPPAEPVSLPQEPPKAFSWASVTSKNLPPSGTVSSSGIPPHVKAPVSQPRVEAKPEVQSQPPRVREQRPRERPGFPPRGPRPGRGDMEQNDSDNRRIIRYPDSHQLFVGNLPHDIDENELKEFFMSFGNVVELRINTKGVGGKLPNFGFVVFDDSEPVQRILIAKPIMFRGEVRLNVEEKKTRAARERETRGGGDDRRDIRRNDRGPGGPRGIVGGGMMRDRDGRGPPPRGGMAQKLGSGRGTGQMEGRFTGQRR [L209P] | with no effect
